The values that follow come from patent US20210395379A1 (NUMAB THERAPEUTICS, published 2021).

Experiment [1] addresses T1, human CD137 expressed on Jurkat cells (human, UniProt Q07011 24-255). The experiment can be described thus: Flow cytometry on CD137 expressing Jurkat cells, detection with APC-labelled goat anti-human IgG. On the technique in general: In flow cytometry, cells or beads pass a laser one at a time.
The target of experiment [2] is T2, Fc tagged human CD137 (R&D Systems, cat. 838-4B-100) (human, UniProt Q07011 24-186).
T2 construct: Bought Fc chimera; also called CD137 Fc chimera; human CD137 (tagged with Fc); not shown: Fc tag of the bought chimera
The experiment can be described thus: SPR (Biacore T200), Fc tagged human CD137 captured by anti-human Fc, scFv as analyte 0.19-45 nM. The procedure:
(§1) In this experiment, Fc tagged human CD137 (R&D Systems, cat. 838-4B-100) was captured using the Human Antibody Capture kit from GE healthcare (cat. BR-1008-39). After each analyte injection cycle, the anti-human Fc-specific IgG was regenerated and new antigen was captured. The scFvs were injected as analyte using a dose response multi-cycle kinetic assay over the captured CD137 with concentrations of the analyte ranging from 0.19 to 45 nM (three-fold dilutions steps) diluted in running buffer. Association and dissociation time were set to 300 s and 720 s, respectively. The obtained sensorgrams were fitted using the 1:1 binding model.
On the technique in general: In SPR one partner is held on a chip, and binding of the other changes the refractive index at the surface.

Experiment [3] has as its target T3, human Fc-tagged OX40 (Acro-Biosystems, cat. OX0-H5255) (human, UniProt P43489 29-216).
T3 construct: also called human OX40; not shown: Fc tag
T3 sequence (looked up): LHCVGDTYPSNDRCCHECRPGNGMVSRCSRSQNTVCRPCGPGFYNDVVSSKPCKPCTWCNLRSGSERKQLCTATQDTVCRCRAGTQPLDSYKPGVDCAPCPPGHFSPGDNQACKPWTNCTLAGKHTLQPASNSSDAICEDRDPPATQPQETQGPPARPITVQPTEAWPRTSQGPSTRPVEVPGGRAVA
In words: SPR (Biacore T200), Fc-tagged OX40 captured by anti-human Fc, scFv as analyte. The procedure: (§2) Binding of scFvs to human Fc-tagged CD40 (AcroBiosystems, cat. CD0-H5253) and human Fc-tagged OX40 (Acro-Biosystems, cat. OX0-H5255) was determined by SPR analysis on a T200 device (Biacore, GE Healthcare). In this experiment, Fc-tagged CD40 and OX40 were captured using the Human Antibody Capture kit from GE healthcare (cat. BR-1008-39). After each analyte injection cycle, the anti-human Fc-specific IgG was regenerated and new antigen was captured. The scFvs were injected as analyte using a high concentration of 180 nM of the analyte diluted in running buffer. Association and dissociation time were set to 300 s and 720 s, respectively. Obtained sensorgrams were fitted using the 1:1 binding model.

The target of experiment [4] is T4, cynomolgus monkey Fc-tagged CD137 (R&D Systems, cat. 9324-4B-100) (cynomolgus monkey, UniProt A9YYE7 24-186).
T4 construct: also called cynomolgus CD137; CD137-Fc chimeric protein (cynomolgus); not shown: the Fc tag (and any linker) of the bought chimera (R&D Systems, cat. 9324-4B-100)
The experiment can be described thus: SPR (Biacore T200), cynomolgus Fc-tagged CD137 captured by anti-human Fc, scFv as analyte. The procedure: as §1
Cross-reactivity to cynomolgus CD137 was measured with cynomolgus monkey Fc-tagged CD137 (R&D Systems, cat. 9324-4B-100) in a similar assay as used to measure binding to human CD137.

Experiment [5] deals with T5, human Fc-tagged CD40 (AcroBiosystems, cat. CD0-H5253) (human, UniProt P25942 21-193).
T5 construct: also called human CD40; not shown: Fc tag
The experiment can be described thus: SPR (Biacore T200), Fc-tagged CD40 captured by anti-human Fc, scFv as analyte. How it is done: as §2

Experiment [6] addresses T1, human CD137 expressed on Jurkat cells. The experiment can be described thus: flow cytometry on CD137 expressing Jurkat cells, detection with APC labelled protein L. How it is done:
50,000 CD137 expressing Jurkat cells (or as reference cell line Jurkat cells lacking CD137 expression) were distributed to round bottom non-tissue culture treated 96 well plates. Cells were washed twice with 100 μl PBS by centrifugation at 400×g for 5 min. […] After 1 h incubation at 4° C. on a nutating mixer, cells were washed 3 times with 100 μl staining buffer and centrifugation steps of 5 min at 400×g. […] Plates were incubated 1 h at 4° C. on a nutating mixer, then washed 3 times with 100 μl of staining buffer and resuspended in a final volume of 50 μl of staining buffer. Finally, APC signal of 20,000 events per well was analyzed by flow cytometry using a Novocyte flow cytometer system (ACEA Bioscience).

T4 sequence (A9YYE7 entry or part of it limits assumed): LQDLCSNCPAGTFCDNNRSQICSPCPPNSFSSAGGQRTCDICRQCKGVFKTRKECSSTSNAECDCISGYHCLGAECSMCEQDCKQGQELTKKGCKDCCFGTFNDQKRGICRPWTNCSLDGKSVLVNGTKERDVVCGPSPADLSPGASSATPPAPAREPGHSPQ
T5 sequence (P25942 21-193 limits assumed): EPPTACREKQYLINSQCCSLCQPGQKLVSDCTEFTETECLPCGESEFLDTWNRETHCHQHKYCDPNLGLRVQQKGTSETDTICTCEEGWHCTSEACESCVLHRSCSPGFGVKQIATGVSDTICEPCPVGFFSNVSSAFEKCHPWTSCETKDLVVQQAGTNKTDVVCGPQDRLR

A word on the EC50 (read off the curve): it is the midpoint of the concentration-response curve. urelumab (antibody) registered an EC50 (read off the curve) in experiment [1] of 0.06 µg/mL.

B1: PRO1359 (38-27-A11 sc02) (scFv)
scFv: DIQMTQSPSSLSASVGDRVTITCQASQSISNRLAWYQQKPGKAPKLLIYSASTLASGVPSRFSGSGSGTDFTLTISSLQPEDFATYYCQSTYYGNDGNAFGTGTKVTVLGGGGGSGGGGSGGGGSGGGGSEVQLVESGGGLVQPGGSLRLSCAASGFSFSANYYPCWVRQAPGKGLEWIGCIYGGSSDITYDANWTKGRFTISRDNSKNTVYLQMNSLRAEDTAVYYCARSAWYSGWGGDLWGQGTLVTVSS
notes: VL-linker-VH, CDR graft, Vk1/VH3; also called anti-4-1BB scFv
One may read the koff as the rate constant with which the complex falls apart. In general, kon refers to the second-order rate constant of association. Usually Kd stands for the constant that tells how readily two partners part at equilibrium. A word on the EC50: it is the concentration needed to bring the measured effect to its halfway point. Regarding B1, in experiment [2], the koff amounted to 0.00281 s⁻¹ and the on-rate constant (kon) came out at 866000 M⁻¹ s⁻¹. Moreover, the binding result in experiment [3] is reported as “no binding (tested: 180 nM)”. In experiment [4], this molecule displayed a Kd of 2.88 nM, a koff of 0.00267 s⁻¹ and a kon of 927000 M⁻¹ s⁻¹. Also, the binding result in experiment [5] is reported as “no binding (tested: 180 nM)”. In addition, in experiment [6], the response was half-maximal at 3.99 µg/mL (EC50) and the “Maximum binding (relative to urelumab)” value worked out at 18%.

B2: PRO1360 (38-27-A11 sc03) (scFv)
scFv: DFQLTQSPSSLSASVGDRVTITCQASQSISNRLAWYQQKPGKPPKLLIYSASTLASGVPSRFSGSGSGTDFTLTISSLQPEDFATYYCQSTYYGNDGNAFGTGTKVTVLGGGGGSGGGGSGGGGSGGGGSESQLVESGGGLVQPGGSLRLSCAASGFSFSANYYPCWVRQAPGKGLEWIGCIYGGSSDITYDANWTKGRFTISRDNSKNTVYLQMNSLRAEDTAVYFCARSAWYSGWGGDLWGPGTLVTVSS
notes: VL-linker-VH, full graft, Vk1/VH3
Consider B2, for which, in experiment [2], the koff turned out to be 0.0003 s⁻¹ and the kon amounted to 1.28e+06 M⁻¹ s⁻¹. For the same molecule, the binding result in experiment [3] is “no binding (tested: 180 nM)”. In experiment [4], this molecule came in with a Kd of 0.24 nM, a koff of 0.000252 s⁻¹ and a kon of 1.05e+06 M⁻¹ s⁻¹. Besides, in experiment [5], the binding result is given as “no binding (tested: 180 nM)”. Moreover, in experiment [6], the EC50 came out at 0.148 µg/mL and the “Maximum binding (relative to urelumab)” value turned out to be 29%.
